According to article PMC1308866, “Inhibition of HIV derived lentiviral production by TAR RNA binding domain of TAT protein”:

Legend:
Assay in all cases: EMSA; 0.25 nmol RNA in 10 ul; peptide:RNA molar ratio 0-1
Details in all cases: hairpin
Tat-P = biological target: T1, Tat-P (HIV, UniProt P69698)
T1 chain: YGRKKRRQRRR

Con-P1 = biological target: T2, Con-P1
T2 chain: RRQRRTSKLMKR

Con-P2 = biological target: T3, Con-P2
T3 chain: ARPLEHGSDKAT

GCCAGAUCUGAGCCUGGGAGCUCUCUGGC (structured_RNA) [TAR RNA 29mer]
binding result (Tat-P): binds
binding result (Con-P1): no binding
binding result (Con-P2): no binding
